Assay results reported in the supplement of paper PMC9876800.

Test system: peptide library, one residue held at a place counted from the S/T acceptor
Test: relative phosphorylation of the sub-library (ratio to the mean residue at this position); human; higher = residue favoured
Conditions: K fixed; at +2
In short: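 Relative sub-library phosphorylation is the ratio of each sub-library's signal to the mean residue at that position. The signal came from phosphorimaging of spots on streptavidin membranes, quantified by densitometry, after purified recombinant kinases reacted with biotinylated degenerate peptide sub-libraries in 384-well plates. Reactions held 50 μM peptide and 50 μM ATP spiked with γ-32P-ATP for 90 min under kinase-specific conditions.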

RPS6KA6, construct: Full length, sequence (Q9UK32 whole entry, looked up): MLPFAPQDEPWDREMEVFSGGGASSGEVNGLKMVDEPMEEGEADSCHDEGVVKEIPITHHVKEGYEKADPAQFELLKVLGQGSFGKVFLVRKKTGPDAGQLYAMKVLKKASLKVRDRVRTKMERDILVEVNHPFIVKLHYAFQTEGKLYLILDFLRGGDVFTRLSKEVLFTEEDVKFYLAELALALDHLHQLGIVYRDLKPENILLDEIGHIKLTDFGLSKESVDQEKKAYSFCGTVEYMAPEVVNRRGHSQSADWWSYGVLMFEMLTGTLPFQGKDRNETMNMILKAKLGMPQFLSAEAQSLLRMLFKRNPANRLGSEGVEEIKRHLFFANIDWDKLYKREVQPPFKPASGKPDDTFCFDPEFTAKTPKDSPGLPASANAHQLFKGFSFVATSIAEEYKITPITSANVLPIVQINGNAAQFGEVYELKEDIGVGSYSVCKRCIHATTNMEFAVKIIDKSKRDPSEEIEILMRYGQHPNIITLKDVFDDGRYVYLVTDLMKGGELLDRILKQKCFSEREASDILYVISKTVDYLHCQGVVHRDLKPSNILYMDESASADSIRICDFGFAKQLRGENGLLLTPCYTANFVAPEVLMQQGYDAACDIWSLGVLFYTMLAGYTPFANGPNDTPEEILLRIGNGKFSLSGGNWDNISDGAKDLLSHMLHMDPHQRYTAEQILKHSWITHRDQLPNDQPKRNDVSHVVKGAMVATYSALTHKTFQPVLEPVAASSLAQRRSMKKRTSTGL
MASTL, construct: Full length, sequence (Q96GX5 whole entry, looked up): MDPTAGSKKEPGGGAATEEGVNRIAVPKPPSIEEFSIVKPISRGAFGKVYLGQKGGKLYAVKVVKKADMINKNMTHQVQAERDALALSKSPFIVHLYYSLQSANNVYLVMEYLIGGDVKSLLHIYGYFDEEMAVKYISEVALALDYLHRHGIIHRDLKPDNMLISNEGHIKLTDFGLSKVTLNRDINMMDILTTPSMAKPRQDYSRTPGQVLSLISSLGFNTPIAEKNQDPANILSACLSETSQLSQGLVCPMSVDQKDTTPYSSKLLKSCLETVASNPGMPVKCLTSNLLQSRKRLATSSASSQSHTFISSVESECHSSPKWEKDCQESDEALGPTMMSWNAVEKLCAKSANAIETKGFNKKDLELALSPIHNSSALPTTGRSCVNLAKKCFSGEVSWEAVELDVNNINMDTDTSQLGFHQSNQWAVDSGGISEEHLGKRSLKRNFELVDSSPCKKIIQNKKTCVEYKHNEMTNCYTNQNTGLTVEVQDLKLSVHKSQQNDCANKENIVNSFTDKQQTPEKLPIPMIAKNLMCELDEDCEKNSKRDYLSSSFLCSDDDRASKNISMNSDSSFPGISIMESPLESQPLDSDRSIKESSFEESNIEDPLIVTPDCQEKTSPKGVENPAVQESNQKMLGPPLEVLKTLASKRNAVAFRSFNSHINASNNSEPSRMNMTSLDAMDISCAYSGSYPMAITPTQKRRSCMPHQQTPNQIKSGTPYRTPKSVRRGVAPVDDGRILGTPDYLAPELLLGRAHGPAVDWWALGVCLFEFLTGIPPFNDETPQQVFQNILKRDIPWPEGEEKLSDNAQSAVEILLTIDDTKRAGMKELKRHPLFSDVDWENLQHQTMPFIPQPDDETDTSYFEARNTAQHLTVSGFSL
CLK3, construct: Full length, sequence (P49761 whole entry, looked up): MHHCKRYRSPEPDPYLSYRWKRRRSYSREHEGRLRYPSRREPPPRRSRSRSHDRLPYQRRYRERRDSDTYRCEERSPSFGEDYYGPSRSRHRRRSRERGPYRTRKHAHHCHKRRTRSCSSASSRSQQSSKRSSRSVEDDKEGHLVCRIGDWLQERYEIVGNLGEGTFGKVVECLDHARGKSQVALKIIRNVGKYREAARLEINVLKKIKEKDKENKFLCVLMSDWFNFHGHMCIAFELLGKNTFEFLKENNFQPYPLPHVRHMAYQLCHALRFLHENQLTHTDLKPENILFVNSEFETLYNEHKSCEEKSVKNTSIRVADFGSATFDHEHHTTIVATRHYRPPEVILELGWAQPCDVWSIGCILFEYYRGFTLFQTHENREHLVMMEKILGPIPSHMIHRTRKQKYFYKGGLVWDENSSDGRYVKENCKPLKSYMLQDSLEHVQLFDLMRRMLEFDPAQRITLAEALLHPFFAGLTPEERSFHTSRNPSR
PRPF4B, construct: aa519-end, sequence (Q13523 519-1007, looked up): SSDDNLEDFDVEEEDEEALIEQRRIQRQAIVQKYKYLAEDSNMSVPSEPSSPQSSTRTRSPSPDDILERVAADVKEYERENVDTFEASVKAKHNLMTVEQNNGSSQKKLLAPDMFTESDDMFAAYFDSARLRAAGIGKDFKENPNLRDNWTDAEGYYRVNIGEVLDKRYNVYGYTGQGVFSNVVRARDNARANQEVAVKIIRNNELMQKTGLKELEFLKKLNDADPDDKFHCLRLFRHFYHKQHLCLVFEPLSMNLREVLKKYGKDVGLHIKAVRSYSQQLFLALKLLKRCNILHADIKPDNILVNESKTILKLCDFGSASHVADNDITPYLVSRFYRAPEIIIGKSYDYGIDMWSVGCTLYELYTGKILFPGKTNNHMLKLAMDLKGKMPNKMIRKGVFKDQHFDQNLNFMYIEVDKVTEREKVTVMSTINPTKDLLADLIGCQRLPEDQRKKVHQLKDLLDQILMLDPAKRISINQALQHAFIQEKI
MELK, construct: aa1-340, sequence (Q14680 1-340, looked up): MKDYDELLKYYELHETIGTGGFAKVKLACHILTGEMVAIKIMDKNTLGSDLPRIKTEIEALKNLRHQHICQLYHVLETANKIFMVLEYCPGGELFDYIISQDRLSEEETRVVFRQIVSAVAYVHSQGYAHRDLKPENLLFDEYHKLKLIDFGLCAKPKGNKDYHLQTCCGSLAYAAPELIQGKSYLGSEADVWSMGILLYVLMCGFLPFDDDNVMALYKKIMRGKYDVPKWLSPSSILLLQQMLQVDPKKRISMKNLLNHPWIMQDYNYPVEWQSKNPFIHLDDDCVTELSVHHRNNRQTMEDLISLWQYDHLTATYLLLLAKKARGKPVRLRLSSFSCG
TTK, construct: Full length, sequence (P33981 whole entry, looked up): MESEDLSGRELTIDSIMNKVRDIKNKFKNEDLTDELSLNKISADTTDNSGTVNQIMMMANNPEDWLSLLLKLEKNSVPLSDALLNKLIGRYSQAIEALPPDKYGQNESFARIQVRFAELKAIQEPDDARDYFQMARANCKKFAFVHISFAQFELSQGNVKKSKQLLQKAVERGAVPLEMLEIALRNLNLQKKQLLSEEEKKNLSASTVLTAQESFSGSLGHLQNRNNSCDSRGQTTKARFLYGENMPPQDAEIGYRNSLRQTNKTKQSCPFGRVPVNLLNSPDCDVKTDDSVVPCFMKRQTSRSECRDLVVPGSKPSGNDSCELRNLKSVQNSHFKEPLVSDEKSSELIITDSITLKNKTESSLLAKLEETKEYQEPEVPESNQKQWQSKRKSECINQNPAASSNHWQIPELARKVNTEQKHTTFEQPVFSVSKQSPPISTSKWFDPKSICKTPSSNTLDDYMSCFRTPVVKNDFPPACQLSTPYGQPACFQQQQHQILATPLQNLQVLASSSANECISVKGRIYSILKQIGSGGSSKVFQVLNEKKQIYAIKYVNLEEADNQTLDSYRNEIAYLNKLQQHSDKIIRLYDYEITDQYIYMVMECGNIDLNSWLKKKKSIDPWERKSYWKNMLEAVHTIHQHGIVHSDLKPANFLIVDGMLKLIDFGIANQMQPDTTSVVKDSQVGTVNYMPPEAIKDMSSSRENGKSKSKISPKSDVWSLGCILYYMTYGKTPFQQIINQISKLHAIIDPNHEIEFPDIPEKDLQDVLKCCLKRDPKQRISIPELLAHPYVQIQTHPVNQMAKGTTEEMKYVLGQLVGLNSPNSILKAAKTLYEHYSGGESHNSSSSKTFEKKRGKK
PAK3, construct: Full length, sequence (O75914 whole entry, looked up): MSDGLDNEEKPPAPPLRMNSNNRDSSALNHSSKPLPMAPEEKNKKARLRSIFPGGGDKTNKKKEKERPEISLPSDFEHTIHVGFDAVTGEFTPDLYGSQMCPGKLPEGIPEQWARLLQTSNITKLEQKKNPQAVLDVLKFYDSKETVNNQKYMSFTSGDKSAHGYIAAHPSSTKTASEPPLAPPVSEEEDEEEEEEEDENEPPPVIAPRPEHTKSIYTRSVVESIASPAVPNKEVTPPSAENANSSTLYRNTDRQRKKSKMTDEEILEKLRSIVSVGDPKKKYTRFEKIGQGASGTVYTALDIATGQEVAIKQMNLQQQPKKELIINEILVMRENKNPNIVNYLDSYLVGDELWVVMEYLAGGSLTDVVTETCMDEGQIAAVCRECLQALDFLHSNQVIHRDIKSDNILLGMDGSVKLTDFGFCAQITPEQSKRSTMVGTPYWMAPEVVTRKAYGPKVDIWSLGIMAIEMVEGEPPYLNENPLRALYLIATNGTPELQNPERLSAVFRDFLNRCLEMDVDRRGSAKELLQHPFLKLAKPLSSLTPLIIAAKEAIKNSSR
GRK5, construct: Full length, sequence (P34947 whole entry, looked up): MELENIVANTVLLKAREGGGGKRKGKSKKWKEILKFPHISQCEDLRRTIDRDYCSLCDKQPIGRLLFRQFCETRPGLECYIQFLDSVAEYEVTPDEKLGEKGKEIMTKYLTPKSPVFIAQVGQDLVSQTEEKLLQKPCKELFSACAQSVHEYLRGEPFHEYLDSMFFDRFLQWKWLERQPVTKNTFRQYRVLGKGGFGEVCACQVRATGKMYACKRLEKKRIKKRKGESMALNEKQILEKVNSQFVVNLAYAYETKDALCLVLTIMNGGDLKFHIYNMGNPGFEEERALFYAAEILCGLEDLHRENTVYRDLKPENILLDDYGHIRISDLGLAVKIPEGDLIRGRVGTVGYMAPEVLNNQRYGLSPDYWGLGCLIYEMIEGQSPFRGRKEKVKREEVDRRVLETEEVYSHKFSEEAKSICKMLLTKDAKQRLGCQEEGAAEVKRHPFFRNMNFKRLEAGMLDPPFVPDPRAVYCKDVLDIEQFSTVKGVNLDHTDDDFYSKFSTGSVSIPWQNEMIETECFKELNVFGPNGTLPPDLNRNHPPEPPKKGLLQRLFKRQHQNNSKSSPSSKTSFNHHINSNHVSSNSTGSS

In order of rising relative phosphorylation:
1. MASTL, construct: Full length (from UniProt Q96GX5)  0.531
2. PRPF4B, construct: aa519-end (from UniProt Q13523)  0.713
3. RPS6KA6, construct: Full length (from UniProt Q9UK32)  0.761
4. MELK, construct: aa1-340 (from UniProt Q14680)  0.858
5. GRK5, construct: Full length (from UniProt P34947)  0.947
6. CLK3, construct: Full length (from UniProt P49761)  1.6
7. TTK, construct: Full length (from UniProt P33981)  1.61

Same assay, conditions: K fixed; at +3

In order of falling relative phosphorylation:
1. CLK3, construct: Full length (from UniProt P49761)  3.25
2. RPS6KA6, construct: Full length (from UniProt Q9UK32)  1.12
3. PRPF4B, construct: aa519-end (from UniProt Q13523)  1.08
4. TTK, construct: Full length (from UniProt P33981)  0.956
5. MELK, construct: aa1-340 (from UniProt Q14680)  0.938
6. GRK5, construct: Full length (from UniProt P34947)  0.767
7. PAK3, construct: Full length (from UniProt O75914)  0.764
8. MASTL, construct: Full length (from UniProt Q96GX5)  0.573

Same assay, conditions: K fixed; at +4

In order of rising relative phosphorylation:
1. MASTL, construct: Full length (from UniProt Q96GX5)  0.841
2. PAK3, construct: Full length (from UniProt O75914)  1.03
3. MELK, construct: aa1-340 (from UniProt Q14680)  1.03
4. RPS6KA6, construct: Full length (from UniProt Q9UK32)  1.03
5. PRPF4B, construct: aa519-end (from UniProt Q13523)  1.03
6. GRK5, construct: Full length (from UniProt P34947)  1.04
7. TTK, construct: Full length (from UniProt P33981)  1.76
8. CLK3, construct: Full length (from UniProt P49761)  2.08

Same assay, conditions: K fixed; at -1

In order of falling relative phosphorylation:
1. CLK3, construct: Full length (from UniProt P49761)  2.62
2. RPS6KA6, construct: Full length (from UniProt Q9UK32)  2.1
3. MELK, construct: aa1-340 (from UniProt Q14680)  1.89
4. PAK3, construct: Full length (from UniProt O75914)  1.61
5. TTK, construct: Full length (from UniProt P33981)  1.26
6. GRK5, construct: Full length (from UniProt P34947)  0.909
7. PRPF4B, construct: aa519-end (from UniProt Q13523)  0.894
8. MASTL, construct: Full length (from UniProt Q96GX5)  0.87

Same assay, conditions: K fixed; at -2

In order of falling relative phosphorylation:
1. RPS6KA6, construct: Full length (from UniProt Q9UK32)  2.65
2. MELK, construct: aa1-340 (from UniProt Q14680)  1.63
3. CLK3, construct: Full length (from UniProt P49761)  1.33
4. PAK3, construct: Full length (from UniProt O75914)  1.3
5. GRK5, construct: Full length (from UniProt P34947)  0.871
6. PRPF4B, construct: aa519-end (from UniProt Q13523)  0.582
7. MASTL, construct: Full length (from UniProt Q96GX5)  0.579
8. TTK, construct: Full length (from UniProt P33981)  0.456

Same assay, conditions: K fixed; at -3

In order of rising relative phosphorylation:
1. PRPF4B, construct: aa519-end (from UniProt Q13523)  0.382
2. GRK5, construct: Full length (from UniProt P34947)  0.788
3. MASTL, construct: Full length (from UniProt Q96GX5)  0.927
4. TTK, construct: Full length (from UniProt P33981)  0.966
5. RPS6KA6, construct: Full length (from UniProt Q9UK32)  1.75
6. PAK3, construct: Full length (from UniProt O75914)  2.22
7. CLK3, construct: Full length (from UniProt P49761)  2.38
8. MELK, construct: aa1-340 (from UniProt Q14680)  2.74

Same assay, conditions: K fixed; at -4

In order of rising relative phosphorylation:
1. PRPF4B, construct: aa519-end (from UniProt Q13523)  0.747
2. GRK5, construct: Full length (from UniProt P34947)  0.831
3. MASTL, construct: Full length (from UniProt Q96GX5)  0.956
4. TTK, construct: Full length (from UniProt P33981)  1.02
5. PAK3, construct: Full length (from UniProt O75914)  1.28
6. CLK3, construct: Full length (from UniProt P49761)  1.38
7. RPS6KA6, construct: Full length (from UniProt Q9UK32)  1.95
8. MELK, construct: aa1-340 (from UniProt Q14680)  2.08

Same assay, conditions: K fixed; at -5

In order of rising relative phosphorylation:
1. GRK5, construct: Full length (from UniProt P34947)  0.861
2. MASTL, construct: Full length (from UniProt Q96GX5)  0.889
3. PRPF4B, construct: aa519-end (from UniProt Q13523)  1.04
4. TTK, construct: Full length (from UniProt P33981)  1.1
5. MELK, construct: aa1-340 (from UniProt Q14680)  1.49
6. CLK3, construct: Full length (from UniProt P49761)  1.53
7. PAK3, construct: Full length (from UniProt O75914)  1.81
8. RPS6KA6, construct: Full length (from UniProt Q9UK32)  2.56

Same assay, conditions: L fixed; at +1

In order of rising relative phosphorylation:
1. CLK3, construct: Full length (from UniProt P49761)  0.478
2. PRPF4B, construct: aa519-end (from UniProt Q13523)  0.548
3. MELK, construct: aa1-340 (from UniProt Q14680)  0.752
4. GRK5, construct: Full length (from UniProt P34947)  0.81
5. TTK, construct: Full length (from UniProt P33981)  1.02
6. MASTL, construct: Full length (from UniProt Q96GX5)  1.06
7. PAK3, construct: Full length (from UniProt O75914)  1.1
8. RPS6KA6, construct: Full length (from UniProt Q9UK32)  1.1

Same assay, conditions: L fixed; at +2

In order of falling relative phosphorylation:
1. MELK, construct: aa1-340 (from UniProt Q14680)  1.79
2. PAK3, construct: Full length (from UniProt O75914)  1.17
3. MASTL, construct: Full length (from UniProt Q96GX5)  0.959
4. PRPF4B, construct: aa519-end (from UniProt Q13523)  0.954
5. TTK, construct: Full length (from UniProt P33981)  0.802
6. GRK5, construct: Full length (from UniProt P34947)  0.735
7. CLK3, construct: Full length (from UniProt P49761)  0.506
8. RPS6KA6, construct: Full length (from UniProt Q9UK32)  0.498

Same assay, conditions: L fixed; at +3

In order of rising relative phosphorylation:
1. CLK3, construct: Full length (from UniProt P49761)  0.438
2. GRK5, construct: Full length (from UniProt P34947)  0.717
3. RPS6KA6, construct: Full length (from UniProt Q9UK32)  0.815
4. MELK, construct: aa1-340 (from UniProt Q14680)  1.02
5. MASTL, construct: Full length (from UniProt Q96GX5)  1.1
6. PAK3, construct: Full length (from UniProt O75914)  1.12
